In experiment [1] the target is T1, human GITR, membrane bound (on activated human T cells and on 3A9-hGITR cells) (human, UniProt Q9Y5U5 26-241).
T1 construct: whole, on cells; the cell is named under assay; also called huGITR; TNFRSF18
T1 sequence (looked up): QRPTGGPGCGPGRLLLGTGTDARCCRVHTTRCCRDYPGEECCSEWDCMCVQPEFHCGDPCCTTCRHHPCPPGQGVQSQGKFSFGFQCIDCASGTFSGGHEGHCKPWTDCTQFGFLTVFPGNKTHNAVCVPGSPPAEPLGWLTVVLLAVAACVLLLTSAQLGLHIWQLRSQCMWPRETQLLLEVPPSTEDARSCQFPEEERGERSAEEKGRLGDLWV
Nature of the experiment: FACS binding to 3A9-hGITR transfectant, Geo-MFI (PE); EC50 table beside the curves; unit from the axis; the lowest curve (small diamonds) reaches only about 40 Geo-MFI at the top concentration. For orientation: A flow cytometer gives signals particle by particle.

Experiment [2] deals with T1, human GITR, membrane bound (on …). The experiment is described as follows: FACS binding to 3A9-hGITR transfectant, Geo-MFI (PE); EC50 table beside the curves; unit from the axis.
Experiment [3] concerns the target T2, cynomolgus GITR on activated cynomolgus T cells (cynomolgus, UniProt Q9Y5U5 26-241 (human entry)).
T2 construct: also called cyno GITR
T2 chain: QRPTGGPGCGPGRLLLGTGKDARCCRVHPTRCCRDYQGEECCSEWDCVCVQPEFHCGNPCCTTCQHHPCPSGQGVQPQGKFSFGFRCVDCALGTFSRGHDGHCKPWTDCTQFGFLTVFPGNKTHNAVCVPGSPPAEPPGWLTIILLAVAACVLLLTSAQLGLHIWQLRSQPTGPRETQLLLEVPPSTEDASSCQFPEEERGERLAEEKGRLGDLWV
Nature of the experiment: FACS, activated cynomolgus T cells (anti-CD3/anti-CD28), PE anti-human IgG. The method, then: (§1) Peripheral Blood Mononuclear Cells (PBMCs) isolated from human or cynomolgus monkey were activated with plate-coated anti-CD3 antibody (Clone: UCHT1 for human T cell activation; Clone: SP34 for cynomolgus T cell activation; both from BD Biosciences) and soluble anti-CD28 antibody (Clone:CD28.2 for both human and cynomolgus monkey, BD Biosciences) for 4 days (human)/or 5 days (cynomolgus monkey). The cells were tested for GITR mAb binding in a fluorescence-activated cell sorting (FACS)-based assay using a phycoerythrin (PE)-conjugated anti-human IgG antibody (Jackson ImmunoResearch). The samples were analyzed on a BD FACS Canto Flow Cytometer.

Experiment [4] deals with T3, non-glycosylated N-terminal human GITR peptide consisting of SEQ ID NO: 215 (human).
T3 construct: Made by proteolysis of native GITR-mouse Fc and also by organic synthesis; also called N-terminal peptide without O-linked glycosylation
T3 peptide: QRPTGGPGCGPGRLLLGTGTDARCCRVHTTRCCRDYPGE
The experiment is described as follows: capture on 28F3 coated beads, LC-MS. The method, then:
The experiment was conducted as follows: Human GITR peptide fragments were generated by incubation of human GITR with Endoproteinase Arg-C, Endoproteinase Lys-C, Trypsin, Endoproteinase Glu-C or Endoproteinase Asp-N at a 2% w/w ratio at 37° C. in PBS for five hours without the presence of denaturing reagents. The peptide mixture was then incubated with anti-GITR Ab beads in PBS at room temperature for two hours. Some samples were subjected to in situ secondary cleavage by incubation with a different enzyme in PBS for an hour. Unbound peptides were removed by washing the anti-GITR Ab beads twice with PBS.

The target of experiment [5] is T1, human GITR, membrane bound (on …). Nature of the experiment: FACS blocking assay on GITR-3A9 cells: antibody titrated first, then GITR-L, bound GITR-L read as GMFI (PE). The table prints no unit, so ug/mL is taken from the axis 'Conc (ug/mL)'.
The target is the same in experiment [6]. The experiment is described as follows: FACS blocking assay on GITR-3A9 cells with GITR-L, plotted as % inhibition. The table prints no unit, so ug/mL is taken from the axis 'Conc (ug/mL)'.
For experiment [7] the target is unchanged. Nature of the experiment: FACS, activated human T cells (anti-CD3/anti-CD28), PE anti-human IgG. The method, then:
as §1

Another experiment has as its target T4, mouse GITR (mouse, UniProt O35714 20-228).
T4 construct: whole, on cells; also called muGITR
T4 sequence (looked up): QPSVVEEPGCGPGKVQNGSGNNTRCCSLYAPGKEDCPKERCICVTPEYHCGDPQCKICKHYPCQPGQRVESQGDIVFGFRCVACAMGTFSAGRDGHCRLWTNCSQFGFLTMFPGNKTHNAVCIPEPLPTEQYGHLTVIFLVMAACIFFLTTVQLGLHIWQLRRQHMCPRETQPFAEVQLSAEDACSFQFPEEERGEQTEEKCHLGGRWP
Nature of the experiment: stated in the Treg suppression assay with wildtype and huGITR knock-in mouse T cells.

Experiment [8] has as its target T2, cynomolgus GITR on activated cynomolgus …. The experiment is described as follows: FACS on activated cynomolgus T cells, PE anti-human IgG. The EC50 table prints no unit, so nM is taken from the axis 'Concentration (nM)'. The 3C3 curve itself is flat, see non_binding. The method, then:
as §1

Changes are numbered by the printed parent chain. Names and notes keep the numbering of the source.

One may read the EC50 as the concentration that produces a half-maximal response.

B1: 28F3 VH CDR3 mutant M98S, D106E, M111F (antibody, V domains shown)
VH: QVQLVESGGGVVQPGRSLRLSCAASGFTFSSYGMHWVRQAPGKGLEWVAVIWYEGSNKYYADSVKGRFTISRDNSKNTLYLQMNSLRAEDTAVYYCARGGSSVRGEYYYGFDVWGQGTTVTVSS
VL: AIQLTQSPSSLSASVGDRVTITCRASQGISSALAWYQQKPGKAPKLLIYDASSLESGVPSRFSGSGSGTDFTLTISSLQPEDFATYYCQQFNSYPYTFGQGTKLEIK
notes: also called E4
B1 displayed an EC50 in experiment [1] of about 38600 µM.

B2: 28F3 VH CDR3 mutant M98Y, D106E, M111F (antibody, V domains shown)
VH: B1 VH with S102Y
VL: B1 VL
notes: also called G4
B2 displayed an EC50 in experiment [2] of 0.045 µM.

B3: 28F3 VH CDR3 mutant M98Y (antibody, V domains shown)
VH: B1 VH with S102Y, E106D, F111M
VL: B1 VL
notes: also called G6
As for B3, a half-maximal effect in experiment [2] (EC50) was put at 0.00168 µM.

B4: 28F3 VH CDR3 mutant M98Y, D106E (antibody, V domains shown)
VH: B1 VH with S102Y, F111M
VL: B1 VL
notes: also called G5
Take B4: it took 0.000798 µM to reach a half-maximal effect in experiment [2] (EC50).

B5: 28F3 VH CDR3 mutant M98V, D106E, M111F (antibody, V domains shown)
VH: B1 VH with S102V
VL: B1 VL
notes: also called A4
In the case of B5, in experiment [2], the EC50 worked out at 0.000772 µM.

B6: 28F3 (antibody, human IgG2, kappa)
heavy: QVQLVESGGGVVQPGRSLRLSCAASGFTFSSYGMHWVRQAPGKGLEWVAVIWYEGSNKYYADSVKGRFTISRDNSKNTLYLQMNSLRAEDTAVYYCARGGSMVRGDYYYGMDVWGQGTTVTVSSASTKGPSVFPLAPCSRSTSESTAALGCLVKDYFPEPVTVSWNSGALTSGVHTFPAVLQSSGLYSLSSVVTVPSSNFGTQTYTCNVDHKPSNTKVDKTVERKCCVECPPCPAPPVAGPSVFLFPPKPKDTLMISRTPEVTCVVVDVSHEDPEVQFNWYVDGVEVHNAKTKPREEQFNSTFRVVSVLTVVHQDWLNGKEYKCKVSNKGLPAPIEKTISKTKGQPREPQVYTLPPSREEMTKNQVSLTCLVKGFYPSDIAVEWESNGQPENNYKTTPPMLDSDGSFFLYSKLTVDKSRWQQGNVFSCSVMHEALHNHYTQKSLSLSPGK
light: not shown
notes: Hybridoma-derived human antibody, IgG2 constant region; also called 13H2; 28F3 (IgG2)
Take B6: the EC50 came out at 0.00104 µM in experiment [3], 0.278 µg/mL in experiment [5], 0.278 µg/mL in experiment [6] and 0.192 nM in experiment [7]. Also, the binding result in experiment [4] is “binds”; with mouse GITR, “no binding”.

B7: 3C3 (antibody, human IgG1, kappa, V domains shown)
VH: QVQLQQWGAGLLKPSETLSLTCAVYGGSFSGYYWTWIRQPPGKGLEWIGKINHSGNTNYNPSLKSRVTISVDTSKNQFSLKLSSVTAADTAVYYCARLGAFDAFDIWGQGTMVTVSS
VL: DIQMTQSPSSLSASVGDRVTITCRASQGISSWLAWYQQKPEKAPKSLIYAASSLQSGVPSRFSGSGSGTDFTLTISSLQPEDFATYYCQQYNSYPYTFGQGTKLEIKR
notes: Hybridoma-derived human antibody; also called GITR.3; 3C3-1
With B7, the EC50 was determined as 0.142 µM in experiment [8], 0.0693 µg/mL in experiment [5], 0.0693 µg/mL in [6] and 0.0492 nM in experiment [7].

B8: 19D3 (antibody, human IgG2, kappa, V domains shown)
VH: QVQLVESGGGVVQPGRSLRLSCAASGFTFSSYGFHWVRQAPGKGLEWVAVIWYAGSNKFYADSVKGRFTISRDNSKNTLYLQMNSLRAEDTAVYYCARGGQLDYYYYYVMDVWGQGTTVTVSS
VL: B7 VL
notes: Hybridoma-derived human antibody; also called 19D3-IgG2
B8: the EC50 in experiment [5] was determined as 0.755 µg/mL; in [6], 0.755 µg/mL; in experiment [7], 0.363 nM.

B9: 18E10 (antibody, human IgG2, kappa, V domains shown)
VH: B8 VH with F34M, F59Y, Q101R, L102I, D103A, Y104V, Y105A, Y106F, V109S
VL: B7 VL
notes: Hybridoma-derived human antibody; also called 18E10-IgG2
Take B9: the EC50 in experiment [3] was determined as 0.000913 µM; in experiment [7], 0.146 nM.

Values taken from patent US20170145104A1 (Bristol-Myers Squibb, published 2017).
